Consider two molecules from publication PMC9912922, “The LH–DH module of bacterial replicative helicases is the common binding site for DciA and other helicase loaders” (Acta Crystallographica. Section D, Structural Biology, 2023).

Sequences and labels used below:
B1: VcDnaB, replicative helicase DnaB from Vibrio cholerae (enzyme)
chain: MADPRTDNRNRKIPDAQVDAIKVPPHSLEAEQSVIGGLLLDNERWDTVSEHVMTQDFYSRPHRLIFDGVKSILEAGKPLDLITLSEYLEQREQLEDVGGFAYLADLAKNTPSAANINAYAEIVAERALVRNLIGVANEIADAGYDPQGRNAEDLLDLAESKVFAIAEARTSENEGPKNVDSILERTLERIELLYKTPQDGVTGVNTGFTDLNKKTAGLQGSDLIIVAARPSMGKTTFAMNLCENAAMEQDKPVLIFSLEMPAEQIMMRMLASLSRVDQTKIRTGQLDDEDWARISSTMGILMEKKNMYIDDSSGLTPTEVRSRARRIAREHGGLSLIMVDYLQLMRVPALTDNRTLEIAEISRSLKALAKELNVPVVALSQLNRSLEQRADKRPVNSDLRESGSIEQDADLIMFIYRDEVYHPDSPLKGTAEIIIGKQRNGPIGSVRLTFQGHYSRFDNYAGPAFDDE
notes: DnaB replicative helicase, Vibrio cholerae; seen as full-length protein without proteolysis on SDS-PAGE of the crystals; NTD 22-175 and CTD 200-461 of PDB 6t66 were the search models

Data set [1] concerns the molecule itself. Put plainly: crystal structure; VcDnaB (0.115 mM monomer) pre-incubated with 2 mM ADP and 5 mM MgCl2, VcDciA added to 0.138 mM; crystals at 18°C in 0.1 M sodium acetate pH 4.8-5.6, 0.7-0.9 M potassium/sodium tartrate; 2.9 Å.
The target in data set [2] is B1. Nature of the data set: intrinsic fluorescence variation along a thermal ramp (Tycho NT.6 nano-DSF); 20 µM of each protein in 50 mM HEPES pH 7.5, 150 mM NaCl, 1 mM ATP; 350/330 nm ratio, 35 to 95°C, compared with the ratio predicted in the absence of interaction; three to five replicates. The settings on record: both partners purified.

B1: the binding result in data set [1] is “binds”.

B2: EcDnaC, helicase loader DnaC from Escherichia coli (natural protein)
chain: MKNVGDLMQRLQKMMPAHIKPAFKTGEELLAWQKEQGAIRSAALERENRAMKMQRTFNRSGIRPLHQNCSFENYRVECEGQMNALSKARQYVEEFDGNIASFIFSGKPGTGKNHLAAAICNELLLRGKSVLIITVADIMSAMKDTFRNSGTSEEQLLNDLSNVDLLVIDEIGVQTESKYEKVIINQIVDRRSSSKRPTGMLTNSNMEEMTKLLGERVMDRMRLGNSLWVIFNWDSYRSRVTGKEY
notes: DnaC helicase loader, Escherichia coli; source: overexpressed in E. coli, purified as described in Marsin et al. (2021)
In the case of B2, in data set [2], the binding result is “binds”.
